First the molecules themselves.
B1: Chinese hamster ovary cell-derived recombinant human bone morphogenetic protein-2 (ligand, UniProt P12643 283-396, looked up)
chain: QAKHKQRKRLKSSCKRHPLYVDFSDVGWNDWIVAPPGYHAFYCHGECPFPLADHLNSTNHAIVQTLVNSVNSKIPKACCVPTELSAISMLYLDENEKVVLKNYQDMVVEGCGCR
modifications: N-glycan (position not given)
notes: Bone morphogenetic protein 2 (BMP-2), human, CHO cell-derived, glycosylated; also called C-rhBMP-2; CHO cell-derived rhBMP-2; source: CHO cell-derived; bought: National Institute for Biological Standards and Control
B2: Escherichia coli-derived recombinant human bone morphogenetic protein-2 (ligand, UniProt P12643 283-396, looked up)
chain: QAKHKQRKRLKSSCKRHPLYVDFSDVGWNDWIVAPPGYHAFYCHGECPFPLADHLNSTNHAIVQTLVNSVNSKIPKACCVPTELSAISMLYLDENEKVVLKNYQDMVVEGCGCR
notes: Bone morphogenetic protein 2 (BMP-2), human; no glycans; Not glycosylated (made in E. coli); an added N-terminal methionine is not spoken of; also called E-rhBMP-2; E. coli-derived rhBMP-2; source: E. coli-derived; provided by Daewoong Pharmaceutical Co., Ltd

Common to all, as to assay: SPR; Biacore T200; rhBMP-2 (ligand) immobilised by EDC/NHS coupling, target level 500 RU, in 10 mM sodium acetate pH 6.0; receptors as analytes, 10-2000 nM, 30 µL/min, 120 s association and 120 s dissociation; 1:1 binding model
Common to all, as to settings: both partners purified

One test deals with T1, BMP receptor type 2 (UniProt Q13873 27-150).
T1 construct: BMP receptor type 2 (BMPR2); No catalogue number is printed; also called BMPR2; source: bought: Thermo Fisher Scientific Co
T1 sequence (looked up): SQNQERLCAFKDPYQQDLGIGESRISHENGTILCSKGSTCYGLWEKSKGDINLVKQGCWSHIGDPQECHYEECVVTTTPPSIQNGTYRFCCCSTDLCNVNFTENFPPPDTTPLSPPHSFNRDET

The target in test [1] is B2.
The target in test [2] is B1.

By Kd is commonly meant the concentration at which binding is half-saturated. In turn, B1 yielded a Kd with BMP receptor type 2 of 141 nM.
B2 returned a Kd with BMP receptor type 2 of 140 nM.

B3: BMP receptor type 1B (receptor, UniProt O00238 14-126, looked up)
chain: KKEDGESTAPTPRPKVLRCKCHHHCPEDSVNNICSTDGYCFTMIEEDDSGLPVVTSGCLGLEGSDFQCRDTPIPHQRRSIECCTERNECNKDLHPTLPPLKNRDFVDGPIHHR
notes: BMP receptor type 1B (BMPR1B); No catalogue number is printed; also called BMPR1B; source: bought: Thermo Fisher Scientific Co
For orientation: kon means the rate constant with which the complex forms. With B3, the Kd stood at 194 nM in test [1] and 74.3 nM in test [2]. Also, the values for the kon in test [1] and in test [2] were 1960 M⁻¹ s⁻¹ and 3470 M⁻¹ s⁻¹, respectively.
